From the supplement of paper PMC10724198
± gives the standard deviation of the averaged measurements.

Tested on: Saccharomyces cerevisiae
Assay: protein stability index of tFT-peptide fusion (C-terminal peptide) (PSI (0-1 scale)); higher = more stable (slower turnover)
Settings: genetic background: wild type; temperature: 30 C
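Note: PSI is a weighted mean of sequencing reads over stability bins, variants kept only with over 10 reads, mCherry proximal and sfGFP distal, peptide attached via GGGS linker.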

Sequence	protein stability index
LRPTPLPRPSPA	0.691 ± 0.024
LRQEVVRPEWYM	0.66 ± 0.054
LRRKSLHFSFPF	0.618 ± 0.054
LRRSRQGGSGRR	0.6 ± 0.044
LRRVGKLRESGS	0.688 ± 0.018
LRSIQVHLGSTA	0.6992 ± 0.0043
LRSPAILFSFAF	0.602 ± 0.043
LRSPGSHIVRLT	0.569 ± 0.035
LRVRLSVLLPLD	0.578 ± 0.0093
LRVTPYTPRSYP	0.732 ± 0.058
LRVVWNLSSRAI	0.636 ± 0.059
LRWGLFSLAWVT	0.5437 ± 0.00065
LRYLEGWWVLRW	0.554 ± 0.063
LSALQQSSAPSI	0.691 ± 0.057
LSCSLSWFFSSV	0.679 ± 0.083
LSFFPPPLPPSS	0.71 ± 0.044
LSFHSYLSPFYL	0.664 ± 0.051
LSFLSDVRHIRE	0.643 ± 0.1
LSGWIRTLLPET	0.674 ± 0.047
LSGYTLRRIISQ	0.704 ± 0.063
LSLPPLRPPYPP	0.678 ± 0.091
LSLVSGWVIPGV	0.687 ± 0.051
LSNATPAHAGKP	0.706 ± 0.13
LSPGRPPRPPRR	0.702 ± 0.041
LSPLPTPLRPNS	0.68 ± 0.025
LSPPPLPPVPSP	0.712 ± 0.015

Sequence	protein stability index
LSPPPPPLPPPL	0.622 ± 0.12
LSPPSSPPPTPS	0.714 ± 0.076
LSSCPRIMVPIT	0.777 ± 0.11
LSSITLTYVSDF	0.781 ± 0.12
LSSLLFFLSWVV	0.529 ± 0.018
LSSLPSTFPPLP	0.692 ± 0.029
LSTCRYMLRLAY	0.5233 ± 0.0021
LSTPFFFVPLTL	0.621 ± 0.007
LSVLNTQFGFGS	0.6751 ± 0.0054
LSVQFVSQHTRV	0.664 ± 0.024
LSVSSLMFNWRS	0.707 ± 0.02
LSWLSLSSNSRL	0.798 ± 0.019
LSWSYTGVCRSE	0.69 ± 0.06
LSYCVGFFSLVG	0.6459 ± 0.0012
LSYSFGCEFLWL	0.674 ± 0.033
LTAKDSRGLFRP	0.706 ± 0.012
LTARPPTLSSPL	0.6729 ± 0.0043
LTASPPRLPPFP	0.701 ± 0.0081
LTGRAVCTDKLK	0.734 ± 0.083
LTKPPHERREKS	0.635 ± 0.019
LTLADWYRIPVI	0.558 ± 0.051
LTLCYGRLPPRL	0.771 ± 0.022
LTPLPSRPPPLP	0.683 ± 0.087
LTSSLSLSFPPL	0.749 ± 0.039
LTTFLLTRIVGA	0.567 ± 0.035
LTVLGSGNLTRS	0.729 ± 0.029

Sequence	protein stability index
LTYFCTLPATLK	0.663 ± 0.022
LVAATGRCIKKP	0.649 ± 0.061
LVAFKGNSMGRE	0.681 ± 0.019
LVALCGYTLRLR	0.487 ± 0.076
LVCMGCCVRTYT	0.608 ± 0.037
LVCPLFCSRWWV	0.674 ± 0.1
LVFGVSRRLGRG	0.65 ± 0.01
LVFHSLCFFPLS	0.694 ± 0.014
LVFREISSRHEI	0.711 ± 0.018
LVGGGEGWVVLG	0.651 ± 0.09
LVGIYYEHPISP	0.754 ± 0.13
LVGLGGCLVGLR	0.6277 ± 0.0027
LVGLVCDFVFVL	0.589 ± 0.007
LVGSGLFGWGWN	0.769 ± 0.073
LVHDQKFSCNWL	0.74 ± 0.031
LVILWDVLSVVP	0.612 ± 0.049
LVIVFDLGNMLH	0.538 ± 0.038
LVLLTRSASLLG	0.691 ± 0.094
LVLSGFSLFPVP	0.705 ± 0.034
LVLTLAPWILFD	0.6784 ± 0.0015
LVLVGISCVKGR	0.597 ± 0.02
LVMTYGFTSVSR	0.687 ± 0.07
LVPWSGCSALLV	0.585 ± 0.014
LVRFRADEPRGG	0.688 ± 0.058
LVRFTCRFFVGV	0.589 ± 0.0089
LVRGRFVVFSGM	0.626 ± 0.034

Sequence	protein stability index
LVRHCIPIIPPP	0.638 ± 0.026
LVRLVGVGLEAV	0.694 ± 0.055
LVSHVPLLPMTP	0.776 ± 0.03
LVSLPISFPASL	0.692 ± 0.035
LVSSLVSSEVYM	0.656 ± 0.019
LVTCPPPVGGPS	0.691 ± 0.0083
LVTGRVASPPLG	0.696 ± 0.043
LVTSACPVPPAR	0.5766 ± 0.002
LVVSHMSQPISM	0.64 ± 0.03
LWALPTPPPSGH	0.67 ± 0.1
LWCPLPHGVLLL	0.608 ± 0.053
LWFPLCRLVRRD	0.682 ± 0.025
LWFVGVAGFSLV	0.5715 ± 0.004
LWSIEVEKAKQK	0.708 ± 0.068
LWSSRPGFDDVW	0.6426 ± 0.0011
LWVSSGASCFIL	0.7239 ± 0.0039
LYGILSCNSGCG	0.672 ± 0.035
LYKYPKRCVDIG	0.676 ± 0.057
LYRFVSVLSDVH	0.577 ± 0.012
LYRRLLCYPKTR	0.675 ± 0.0043
LYSDLLTDDKNC	0.666 ± 0.023
LYSGIAVSATSL	0.734 ± 0.048
LYTENSDLDRVF	0.657 ± 0.039
LYWAYLGASVLL	0.658 ± 0.013
MAFKLFPFGRNL	0.73 ± 0.028
MAVYLKYSLLRL	0.515 ± 0.037

Sequence	protein stability index
MCNLSLSCEGLG	0.665 ± 0.045
MCVFGLFCSCFD	0.586 ± 0.082
MCWGSAEAMGFR	0.663 ± 0.014
MEGRVARAYSDE	0.688 ± 0.04
MFCRSPSYFPTV	0.739 ± 0.035
MFTFIQRPVAQV	0.6357 ± 0.0054
MGAAWNYANFGL	0.7011 ± 0.0059
MGLVVGILVGHR	0.647 ± 0.098
MGLYSNTRNWGS	0.682 ± 0.034
MKGELRHRWCPL	0.71 ± 0.046
MKRLTCGGFNLE	0.704 ± 0.03
MKSRQKPESGPR	0.6899 ± 0.0056
MLLSVDWAGDEI	0.796 ± 0.11
MLSFTQRYYSAI	0.64 ± 0.03
MLSWKASWRQPV	0.664 ± 0.021
MPGYLIRPPVIS	0.709 ± 0.0078
MQEMLPSRPIRH	0.69 ± 0.029
MQLREIIMIEKS	0.693 ± 0.043
MQSRWAQVEGKE	0.673 ± 0.055
MRSLLDPLSNSC	0.7804 ± 0.0065
MSMVVCHGGGGL	0.663 ± 0.017
MSRPGEGSYIGD	0.652 ± 0.017
MSSGGSIYMVRT	0.723 ± 0.018
MTMGSIGNFDQG	0.611 ± 0.073
MVARFGNEFMFL	0.695 ± 0.057
MVEFWDLPGRSC	0.744 ± 0.081

Sequence	protein stability index
MVGLTTEFGSDG	0.667 ± 0.015
MVSFEWCLARSY	0.501 ± 0.054
MVTRSLLLLLHG	0.599 ± 0.053
MWRWRAHVDRFR	0.6831 ± 0.0058
MYPAYNRVRFEL	0.657 ± 0.032
MYRSLPRLKQTY	0.721 ± 0.031
NAGHTGPYADGN	0.669 ± 0.043
NAYRLSCGDNTN	0.683 ± 0.027
NCEVYVGLVLAD	0.597 ± 0.028
NDGLRRLICGGT	0.68 ± 0.022
NDKPKTTQKRTP	0.718 ± 0.0092
NDLYDVLKYLFN	0.712 ± 0.086
NEGGGGRGETVE	0.613 ± 0.021
NEIRNKETETVM	0.665 ± 0.023
NEPEKGQRKRRE	0.8051 ± 0.0073
NFHVRFVPDGGR	0.67 ± 0.021
NFRHSVTTSEVN	0.737 ± 0.013
NGCCLVHAETGP	0.676 ± 0.032
NGILRGATYQDV	0.77 ± 0.067
NGLGKGKTKGEI	0.625 ± 0.1
NGMVDDQSEVNR	0.682 ± 0.074
NHRANSNPRLRY	0.731 ± 0.0095
NIAPPNHASIVL	0.695 ± 0.014
NINNKRNHIHLK	0.648 ± 0.075
NIRSRKYMLRKS	0.744 ± 0.085
NKKDHTLTKKRT	0.661 ± 0.063

Sequence	protein stability index
NKKFTKQTCKPK	0.663 ± 0.0011
NKKKYEIKLIME	0.641 ± 0.06
NKKNKKRIGRNT	0.736 ± 0.034
NKNTEMNKTQWR	0.702 ± 0.03
NKRKKKRTEPQP	0.661 ± 0.013
NKTKKKKKKKRG	0.659 ± 0.061
NKTRRCTAHVGG	0.679 ± 0.054
NKYRKNMKSSVP	0.671 ± 0.019
NLGFTTSWSFDL	0.766 ± 0.066
NLMTPAWTNFSS	0.756 ± 0.077
NLRESRSLKGVI	0.73 ± 0.016
NLRSSTSKNNKR	0.659 ± 0.079
NLTKTLNNDIIK	0.68183 ± 0.00011
NLVSCFSSCGSV	0.628 ± 0.028
NLYLEKLLHSEP	0.715 ± 0.018
NMGRCEGGKTAR	0.643 ± 0.016
NMIIPEAVSLSL	0.672 ± 0.026
NMQRKSRNQIID	0.707 ± 0.074
NNYRKKKHNYKK	0.697 ± 0.011
NPGGRPKNTINP	0.649 ± 0.11
NPPPPAHYSRPP	0.73 ± 0.031
NPSRASAWPHVH	0.607 ± 0.061
NRGHWECIRVQR	0.582 ± 0.059
NRLVQNRQVQLY	0.682 ± 0.014
NRLVRLSQGGRE	0.668 ± 0.019
NRQNNYANDIQK	0.713 ± 0.045

Sequence	protein stability index
NRTPTPNQTPPT	0.6798 ± 0.0048
NRYRKNIKKRKK	0.617 ± 0.028
NSIHRTRPKKII	0.641 ± 0.0048
NSRMSRYTTPYG	0.68054 ± 0.00052
NTCGYGRAIKST	0.687 ± 0.016
NTDPAKRNHPRK	0.71379 ± 0.00067
NTDSIKKQKKKK	0.675 ± 0.019
NTTCGVEQKEDK	0.649 ± 0.014
NVALPLSLLFGL	0.633 ± 0.087
NVGACRVMKTVY	0.6876 ± 0.003
NVLNLTDTKETL	0.652 ± 0.046
NYRGEKYDKREH	0.569 ± 0.11
PAAPFFPSLRLL	0.711 ± 0.03
PAASPVDEKVRL	0.633 ± 0.016
PAEGVVGGKCYV	0.685 ± 0.092
PAFCLTRAPSTQ	0.72 ± 0.071
PAFPPPLPRRFL	0.693 ± 0.23
PAHLFVPSSLFR	0.702 ± 0.042
PALPNNVQCDCE	0.705 ± 0.073
PALPPRLPPPPL	0.602 ± 0.019
